Experiment [1] concerns the target T1, human TIGIT on cells (Jurkat-TIGIT cells; human T cells, NK cells and other blood cells) (human, UniProt Q495A1 22-244).
T1 sequence: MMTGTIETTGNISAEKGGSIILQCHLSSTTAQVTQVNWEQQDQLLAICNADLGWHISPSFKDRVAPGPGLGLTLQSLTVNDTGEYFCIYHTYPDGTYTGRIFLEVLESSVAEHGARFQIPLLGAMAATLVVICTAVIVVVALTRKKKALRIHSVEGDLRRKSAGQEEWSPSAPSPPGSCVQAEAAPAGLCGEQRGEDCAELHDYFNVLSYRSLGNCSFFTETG
The experiment in a line: cell-based or functional assay.

Experiment [2] deals with T2, extracellular region of human TIGIT fused to the Fc region of human immunoglobulin gamma-1 chain (hTIGIT-Fc) (human).
T2 construct: also called human TIGIT-Fc fusion protein; wild-type TIGIT-Fc
Put plainly: ELISA, hybridoma screening. An excerpt:
Mouse antibodies secreted in culture supernatants of hybridoma cells were subjected to a series of screening to identify the antibodies with the following properties: (1) binding to purified hTIGIT-Fc fusion protein, (2) binding to NS0-hTIGIT cells, (3) non-binding to NS0 cells, (4) binding to CD3+ T cells derived from phytohemagglutinin-treated human peripheral blood mononuclear cells and (5) blocking of the binding of hCD155-Fc fusion protein to NS0-hTIGIT cells. The first property to bind to hTIGIT-Fc was tested by ELISA using HRP-conjugated goat antibodies against mouse kappa and lambda light chains (SouthernBiotech, Birmingham, Ala.) for identification of mouse anti-TIGIT antibodies. The second, third and fourth properties were examined by flow cytometry using PE-labeled goat anti-mouse gamma chain antibody (SouthernBiotech) for detection of cell-bound mouse antibodies. The fifth property was analyzed by flow cytometry as described below. […] TIG1, TIG2 and TIG3 monoclonal antibodies were purified from culture supernatant of hybridoma cells by protein A column chromatography as described above. The isotypes of TIG1, TIG2 and TIG3 are mouse IgG2b/kappa, IgG2a/kappa and IgG2a/kappa, respectively.

Experiment [3] concerns the target T3, TIGIT-Fc fusion protein with the Q35A mutation (human).
T3 construct: the entry already carries the mutation; also called pFCm179-Q35A product
The experiment in a line: ELISA on captured mutant TIGIT-Fc. The procedure: (§1) Binding of each of mouse TIG1, TIG2 and TIG3 antibodies to the TIGIT mutants was examined by ELISA. An ELISA plate was coated with 100 μl/well of goat anti-human IgG Fc-specific polyclonal antibody (Sigma-Aldrich), 1/2,000-diluted in PBS at 4° C. overnight, washed with Wash Buffer, and blocked with 200 μl/well ELISA Buffer for 20 min at room temperature. After washing with Wash Buffer, 0.5 μg/ml of transiently expressed TIGIT-Fc fusion proteins, carrying either the wild-type TIGIT or one of the six TIGIT mutants, in ELISA Buffer (100 μl/well) were applied to the ELISA plate in duplicates for incubation at room temperature for 30 min. As a negative control, culture supernatants of untransfected HEK293 cells were used. After washing with Wash Buffer, 100 μl/well of 200 ng/ml of a test antibody (TIG1, TIG2 or TIG3) in ELISA Buffer (100 μl/well) was applied. After incubating the ELISA plate for 30 min at room temperature and washing with Wash Buffer, bound antibodies were detected using 100 μl/well of HRP-conjugated goat anti-mouse kappa chain polyclonal antibody (Bethyl Laboratories, Montgomery, Tex.), 1/2,000-diluted in ELISA Buffer. After incubating the plate for 0.5 hr at room temperature and washing with Wash Buffer, color development was initiated by adding 100 μl/well of ABTS substrate (Sigma-Aldrich) and stopped with 100 μl/well of 2% oxalic acid. Absorbance was read at 405 nm.
(§2) For each of TIG1, TIG2 and TIG3, the relative binding to each TIGIT mutant was calculated in the following formula. The average absorbance with the wild type TIGIT-Fc fusion proteins [Abs A] was normalized to 100%, and the average absorbance with culture supernatants of untransfected HEK293 cells [Abs B] was normalized to 0%. The average absorbance with a mutant TIGIT-Fc fusion protein [Abs C] was normalized by the following formula: 100×([Abs C]−[Abs B])/([Abs A]−[Abs B]). […] None of the TIGIT mutants used in this assay abolished the binding of TIG2 and TIG3 to TIGIT.

Experiment [4] deals with T4, TIGIT-Fc fusion protein with the N37A mutation (human).
T4 construct: also called pFCm179-N37A product
Put plainly: ELISA on captured mutant TIGIT-Fc. Here is the method:
as §1, §2

The target in experiment [5] is T5, TIGIT-Fc fusion protein with the D51A mutation (human).
T5 construct: also called pFCm179-D51A product
The experiment in a line: ELISA on captured mutant TIGIT-Fc. Here is the method:
as §1, §2

Experiment [6] deals with T6, extracellular region of human TIGIT fused to FLAG and GPI (hTIGIT-GPI), on the surface of NS0 cells (human).
T6 construct: The GPI signal is processed when the anchor is attached; also called NS0-hTIGIT cells
T6 chain: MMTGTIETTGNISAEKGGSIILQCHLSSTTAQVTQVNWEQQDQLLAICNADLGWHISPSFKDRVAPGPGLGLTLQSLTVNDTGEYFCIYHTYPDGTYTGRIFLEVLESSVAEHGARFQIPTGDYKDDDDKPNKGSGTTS
Put plainly: flow cytometry, competition with hCD155-Fc for NS0-hTIGIT cells. Here is the method: The activity of TIG1, TIG2 and TIG3 to block the interaction between TIGIT and CD155 was analyzed by flow cytometry. NS0-hTIGIT cells were incubated with a sub-saturating concentration of hCD155-Fc in the presence (or absence) of various concentrations of an anti-TIGIT monoclonal antibody as a competitor. Detection of hCD155-Fc bound to NS0-hTIGIT cells was performed with DyLight488-labeled goat anti-human IgG, Fc-specific antibody (Jackson ImmunoResearch, West Grove, Pa.).

Experiment [7] concerns the target T3, TIGIT-Fc fusion protein with the Q35A …. Put plainly: ELISA, mutant TIGIT-Fc captured by anti-human Fc, antibody at 200 ng/ml, wild type TIGIT-Fc = 100 %. The procedure:
as §1, §2

Experiment [8] deals with T4, TIGIT-Fc fusion protein with the N37A …. Described as above. Here is the method:
as §1, §2

Experiment [9] concerns the target TIGIT-Fc fusion protein with the E39A mutation (printed Q39A in the text) (human). The experiment is described as above. The procedure:
as §1, §2

The target of experiment [10] is T7, TIGIT-Fc fusion protein with the N49A mutation (human).
T7 construct: also called pFCm179-N49A product
Described as above. Here is the method:
as §1, §2

The target of experiment [11] is T5, TIGIT-Fc fusion protein with the D51A …. Described as above. Here is the method: as §1, §2
Experiment [12] deals with T8, TIGIT-Fc fusion protein with the F86A mutation (human).
T8 construct: also called pFCm179-F86A product
The description is as above. Here is the method: as §1, §2

B1: TIG1 mouse anti-human TIGIT monoclonal antibody (antibody, mouse IgG2b, V domains shown)
VH: DVQLVESGGGLVQPGGSRKLSCAASGFTFSNFGMHWVRQAPEKGLEWVAFISSGSSSIYYADTVKGRFTISRDNPKNTLFLQMTSLRSEDTAMYYCARMRLDYYAMDYWGQGTSVTVSS
VL: DVQITQSPSYLAASPGETITINCRASKSISKYLAWYQEKPGKTNKLLIYSGSTLQSGIPSRFSGSGSGTDFTLTISSLEPEDFAMYYCQQHNEYPWTFGGGTKLEIK
notes: also called anti-TIGIT antibody (TIG1)
With B1, the “enhancement of NK cell mediated natural cytotoxicity of K562 cells” value in experiment [1] came to 2 fold. For the same molecule, the binding result in experiment [2] is listed as “binds”; in experiment [3], “no binding”; in experiment [4], “no binding”; in [5], “no binding”. In addition, in [6], the IC50 was 0.049 µg/mL. The “Relative binding to TIGIT (%)” value is -0.1% in [7]; 0.8% in experiment [8]; 71.1% in experiment [9]; 0.5% in experiment [10]; 1.8% in experiment [11]; 49.5% in [12].

The values are drawn from patent publication US20170281764A1 (JN BIOSCIENCES, published 2017).
